Tests used:
MAP kinase ERK1/2 = assay: ERK1/2 phosphorylation In-Cell Western (pERK ICW) in CHO cells overexpressing human FGFR1c plus KLB; assay type: cell-based; conditions: ERK1/2 phosphorylation Thr202/Tyr204
Description: FIG. 1C-1 to FIG. 1C-3) Dose dependent in vitro activation of the downstream effector ERK. Activation of the downstream effector of FGF signaling, the MAP kinase ERK1/2, was determined via In-Cell Western assay in CHO cells stably overexpressing human FGFR1c and KLB using an antibody directed against the ERK1/2 phosphorylated amino acid residues threonine 202 and tyrosine 204.
(§1) CHO Flp-In cells (Invitrogen, Darmstadt, Germany) stable expressing the human FGFR1c together with human beta-Klotho (KLB) were used for FGF-21 receptor autophosphorylation assay using In-Cell Western. In order to determine the receptor autophosphorylation level, 2×10^4 cells/well were seeded into 96-well plates and grown for 48 h. Cells were serum starved with serum-free medium Ham's F-12 Nutrient Mix with GlutaMAX (Gibco, Darmstadt, Germany) for 3-4 h. […] Subsequently cells were washed again with PBS+0.1% Tween20 and infrared dye signals were quantified with an Odyssey imager (LICOR, Bad Homburg, Germany). Results were normalized by quantification of DNA with TO-PRO3 dye (Invitrogen, Karlsruhe, Germany). […]
To assess the activation of a downstream effector of FGFR signalling by FGF-21-GLP-1RA fusion proteins the phosphorylation of MAP kinases ERK1/2 were analysed. […]

human FGFR1c plus KLB = human FGFR1c plus KLB (Homo sapiens, UniProt P11362+Q86Z14); assay: FGF-21 receptor autophosphorylation In-Cell Western (pFGFR ICW) in CHO cells; assay type: cell-based; conditions: CHO cells overexpressing human FGFR1c plus KLB, FGFR autophosphorylation
Description: FIG. 1B-1 to FIG. 1B-4) The FGF induced FGFR autophosphorylation was measured via a specific and highly sensitive In-Cell Western (ICW) in CHO cells stably overexpressing human FGFR1c together with human betaKlotho (KLB). In-Cell Western assay is an immunocytochemical assay usually performed in microplate format. Target-specific primary antibodies and infrared-labelled secondary antibodies are used to detect target proteins in fixed cells, and fluorescent signal from each well is quantified (e.g. the In-Cell Western assay from LI-COR Biosciences, USA).
The cellular efficacy of FGF-21 or FGF-21 fusion proteins was measured using a specific and highly sensitive In-Cell Western (ICW) assay. The ICW assay is an immunocytochemical assay usually performed in microplate format.
as §1, with “h.” for “h. Cells were serum starved with serum-free medium Ham's F-12 Nutrient Mix with GlutaMAX (Gibco, Darmstadt, Germany) for 3-4 h.”

Sequence of human FGFR1c plus KLB (P11362 22-822): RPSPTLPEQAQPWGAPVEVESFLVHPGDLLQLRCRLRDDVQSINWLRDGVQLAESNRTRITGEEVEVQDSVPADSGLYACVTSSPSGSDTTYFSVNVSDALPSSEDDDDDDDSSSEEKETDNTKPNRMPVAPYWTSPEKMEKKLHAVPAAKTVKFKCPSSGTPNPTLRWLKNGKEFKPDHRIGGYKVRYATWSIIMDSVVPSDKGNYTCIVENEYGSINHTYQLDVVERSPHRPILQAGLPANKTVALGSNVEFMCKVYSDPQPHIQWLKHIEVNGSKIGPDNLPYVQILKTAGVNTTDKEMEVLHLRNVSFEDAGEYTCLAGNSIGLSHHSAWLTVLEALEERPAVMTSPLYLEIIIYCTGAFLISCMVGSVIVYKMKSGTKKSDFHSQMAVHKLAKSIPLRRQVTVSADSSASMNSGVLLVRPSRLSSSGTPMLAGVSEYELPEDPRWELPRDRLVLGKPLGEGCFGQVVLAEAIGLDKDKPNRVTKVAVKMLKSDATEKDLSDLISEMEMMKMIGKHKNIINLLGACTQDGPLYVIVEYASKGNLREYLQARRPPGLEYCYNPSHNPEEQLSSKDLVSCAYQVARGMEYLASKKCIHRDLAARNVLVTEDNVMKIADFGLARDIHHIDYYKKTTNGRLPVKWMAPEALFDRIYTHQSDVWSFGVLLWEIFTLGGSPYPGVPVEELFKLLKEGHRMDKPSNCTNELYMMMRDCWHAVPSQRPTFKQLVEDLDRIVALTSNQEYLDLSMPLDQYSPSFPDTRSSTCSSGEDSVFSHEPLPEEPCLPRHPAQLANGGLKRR
Sequence of human FGFR1c plus KLB (Q86Z14 whole entry): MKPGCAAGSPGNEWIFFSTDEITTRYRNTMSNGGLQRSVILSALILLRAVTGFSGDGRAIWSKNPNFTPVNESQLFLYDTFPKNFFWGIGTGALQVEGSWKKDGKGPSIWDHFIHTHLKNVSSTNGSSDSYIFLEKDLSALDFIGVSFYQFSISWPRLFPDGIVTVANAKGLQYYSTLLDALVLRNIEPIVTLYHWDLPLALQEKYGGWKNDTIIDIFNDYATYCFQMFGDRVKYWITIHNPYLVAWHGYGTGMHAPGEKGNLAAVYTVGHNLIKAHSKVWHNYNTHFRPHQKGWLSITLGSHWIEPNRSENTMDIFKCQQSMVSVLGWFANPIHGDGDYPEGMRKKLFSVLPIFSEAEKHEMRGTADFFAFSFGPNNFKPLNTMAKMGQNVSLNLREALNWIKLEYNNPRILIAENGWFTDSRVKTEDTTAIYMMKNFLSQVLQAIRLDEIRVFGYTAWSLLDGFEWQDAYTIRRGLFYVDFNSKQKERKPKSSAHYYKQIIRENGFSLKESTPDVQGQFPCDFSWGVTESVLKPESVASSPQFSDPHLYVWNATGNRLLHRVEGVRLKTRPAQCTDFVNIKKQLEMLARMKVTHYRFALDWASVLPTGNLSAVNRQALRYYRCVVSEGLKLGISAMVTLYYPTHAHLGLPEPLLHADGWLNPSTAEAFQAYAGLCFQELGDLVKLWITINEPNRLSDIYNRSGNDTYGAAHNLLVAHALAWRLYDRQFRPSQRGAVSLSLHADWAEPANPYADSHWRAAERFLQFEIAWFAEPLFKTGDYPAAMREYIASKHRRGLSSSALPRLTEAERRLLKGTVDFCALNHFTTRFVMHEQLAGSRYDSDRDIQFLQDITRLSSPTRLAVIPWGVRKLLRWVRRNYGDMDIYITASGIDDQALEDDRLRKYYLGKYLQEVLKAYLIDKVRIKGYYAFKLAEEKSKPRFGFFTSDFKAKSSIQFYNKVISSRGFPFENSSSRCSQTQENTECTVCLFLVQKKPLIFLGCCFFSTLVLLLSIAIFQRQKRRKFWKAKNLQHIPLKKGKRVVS

EC50 (MAP kinase ERK1/2): 0.135 nM
EC50 (human FGFR1c plus KLB): 4.3 nM
B1: FGF21 wild type: Native Human FGF-21 without signal sequence (protein)
chain: HPIPDSSPLLQPGGQVRQRYLYTDDAQQTEAHLEIREDGTVGGAADQSPESLLQLKALKPGVIQILGVKTSRFLCQRPDGALYGSLHFDPEACSFRELLLEDGYNVYQSEAHGLPLHLPGNKSPHRDPAPRGPARFLPLPGLPPAPPEPPGILAPQPPDVGSSDPLSMVGPSQGRSPSYAS
modifications: FGF-21 mutein H29-S209
